Experimental data taken from patent publication US9345682B2, “Inhibition of STAT3 signal transduction for human cancer therapy” (University of South Florida, priority 1999, dated 2016).
One block for each molecule: values may come before it. Non-standard residues stand in square brackets, D forms with d. No end group written: not given here. pY = N[C@@H](Cc1ccc(OP(=O)(O)O)cc1)C(=O)O

Legend:
[1] = tested on: Bcl-xL overexpressing U266 cells; test: Drug-induced apoptosis in U266 cells overexpressing Bcl-xL; format: cell-based, human; settings: stable U266 clones overexpressing Bcl-xL; 24 h for melphalan and mitoxantrone
Description: FIG. 23 Enforced Overexpression of Bcl-x Confers Resistance to Chemotherapy. Panel A: U266 cells are transfected with a CMV expression vector encoding Bcl-x, tagged with the FLAG epitope. Several stable, independent clones overexpressing Bcl-xL, as well as empty vector controls (Neo), are isolated and analyzed by Western blot with antibodies to Bcl-xL, or the FLAG epitope tag. B: The indicated cell lines are incubated with either melphalan (LPAM) or mitoxantrone for 24 h, and apoptosis is monitored by AnnexinV-FITC staining and flow cytometry. Overexpression of Bcl-xL protects the cells from chemotherapy-induced apoptosis.
These Bcl-xL overexpressing cells are resistant to apoptosis induced by AG490, as predicted since the ectopic Bcl-xL is expressed from a CMV promoter and is thus independent of JAK-STAT signaling. […] These findings support one embodiment of the present invention, that Bcl-x confers resistance to chemotherapy-induced apoptosis, and therefore that inhibition of STAT3 signaling promotes chemotherapy-induced apoptosis.

[2] = molecular target: T1, Full length STAT3 (Homo sapiens, UniProt P40763); test: Phage display panning, 12-mer peptide library, on full-length GST-Stat3; format: binding
T1 construct: Full-length GST-Stat3, immobilized to glutathione-Sepharose beads, is used to screen a display peptide library; made in house; host or cells: E. coli
T1 sequence (P40763 whole entry, species assumed): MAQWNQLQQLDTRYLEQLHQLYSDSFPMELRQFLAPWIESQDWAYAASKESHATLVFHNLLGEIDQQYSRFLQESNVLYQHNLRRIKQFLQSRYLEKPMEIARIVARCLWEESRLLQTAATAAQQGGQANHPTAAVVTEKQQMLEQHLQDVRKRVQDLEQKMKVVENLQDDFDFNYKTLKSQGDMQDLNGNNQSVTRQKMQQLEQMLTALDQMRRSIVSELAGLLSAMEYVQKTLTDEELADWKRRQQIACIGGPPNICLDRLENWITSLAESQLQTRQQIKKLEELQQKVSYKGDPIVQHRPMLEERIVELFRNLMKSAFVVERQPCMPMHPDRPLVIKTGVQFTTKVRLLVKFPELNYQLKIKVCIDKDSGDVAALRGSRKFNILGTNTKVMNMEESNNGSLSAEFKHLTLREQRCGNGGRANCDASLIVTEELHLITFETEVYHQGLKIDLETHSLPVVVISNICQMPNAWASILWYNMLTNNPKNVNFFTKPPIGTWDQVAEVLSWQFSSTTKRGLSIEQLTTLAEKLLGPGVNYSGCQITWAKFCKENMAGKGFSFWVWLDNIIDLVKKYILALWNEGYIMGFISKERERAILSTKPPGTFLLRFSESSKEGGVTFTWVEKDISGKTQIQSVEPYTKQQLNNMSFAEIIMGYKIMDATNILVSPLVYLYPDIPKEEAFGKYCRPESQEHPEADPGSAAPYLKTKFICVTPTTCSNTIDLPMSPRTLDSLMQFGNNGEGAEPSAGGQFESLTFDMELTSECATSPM
Description: Phage display peptide libraries are used because of two powerful features. First, phage libraries generate an enormous diversity of peptides that can be subjected to affinity selection by panning. […] These combinatorial libraries are based on random short peptide sequences fused to a coat protein of bacteriophage, herein pIII of the filamentous coliphage MI3. Panning of the peptide library using an immobilized target, herein STAT3 fusion proteins bound onto beads, is used to select for peptide sequences that bind to STAT3. […] Peptide sequences that occur at elevated frequencies are good candidates for ST4T3-specific binding peptides. […] These cyclic peptides have the advantage of reducing entropic freedom, thereby potentially increasing binding specificity and affinity relative to linear peptides. Another variation on this approach is to combine “affinity maturation” with the phage display peptide library [Scott & Smith, 1990, Science, 249:386-390].
The GST-Stat3 fusion protein is purified on glutathione-Sepharose beads according to standard methods. The first library screened is obtained from a commercial source (New England Biolabs) and consists of random 12 amino acid sequences with a complexity of 1.9×10^9 independent transformants, each theoretically represented approximately 70 times in 1.4×10^11 phage particles. […] This is due to the inability of peptidases to cleave adjacent to proline residues in the peptide leader sequence, which is required for secretion. The titer of the original phage library after one round of amplification is 1.4×10^13 pfu/ml (plaque forming units per ml).
For panning phage with the STAT3 fusion protein, 50 ul of glutathione-Sepharose beads bound to purified GST-Stat3 fusion protein are washed with phosphate buffered saline (PBS). The beads are then incubated with 10 ul of phage suspension (1.4×10^11 virions) in 200 ul final volume of PBS for 30 min at room temperature with occasional mixing. The beads are gently pelleted in a microcentrifuge, and washed 10 times with 1 ml of PBS to remove unbound phage. Background of non-specifically bound phage is reduced by a variety of methods, including pre-blocking the beads with bovine serum albumin, pre-clearing the phage library with GST-glutathione-Sepharose beads, and washing the beads with increasing salt concentrations. Bound phage virions are eluted from the beads by incubation with a molar excess of glutathione for 30 min at room temperature. A small aliquot of the phage eluate is titered and the rest is amplified on the E. coli ER2537 host strain. Following amplification, the phage are purified by polyethylene glycol (PEG) precipitation and then the titer is determined again. Using 1-2×10^11 phage particles from the amplified eluate as input, the above binding and amplification steps are repeated a total of 3 to 4 times. After the final titering step, 40-100 isolated plaques are amplified for DNA sequencing to identify a consensus binding sequence. Sequence analysis is performed by automated sequencing on a Pharmacia ALF sequencer.
Full-length GST-Stat3, immobilized to glutathione-Sepharose beads, is used to screen a display peptide library containing 1.9×10^9 random 12-mer peptides positioned at the N-terminus of a minor coat protein (pIII) of the M13 filamentous bacteriophage. Based on their frequencies shown in Table 1, the five most promising peptides from a 12-mer peptide library that bind to full-length STAT3 are listed.

[3] = molecular target: T2, STAT3 (Homo sapiens, UniProt P40763); test: Disruption of STAT3 DNA-binding activity in vitro by synthetic peptides; settings: ne = no effect
T2 construct: made in house; host or cells: Sf9 insect cells co-infected with baculoviruses for STAT3 and Src or Fes (cell extracts)
T2 sequence (P40763 whole entry, species assumed): as above
Description: A novel non-radioactive, 96-well plate based assay is used for measuring STAT3 DNA-binding activity (FIG. 30). In this high throughput assay, a biotinylated hSIE probe is used in place of the ^32P-labeled hSIE probe used for EMSA to detect binding of STAT3 dimers. The hSIE oligonucleotide is a high-affinity mutant of the original sis-inducible element in the C-fos gene promoter that binds STAT3. The biotinylated hSIE probe is immobilized onto a streptavidin-coated 96-well plate, permitting a large number of compounds and concentrations to be tested in a single experiment. The source of activated STAT3 is extracts derived from Sf9 insect cells co-infected with baculoviruses encoding STAT3 and either the Src or Fes tyrosine kinases. Using this baculovirus expression system, high levels of activated STAT3 dimers are produced as a result of phosphorylation by the co-expressed tyrosine kinases. Activated STAT3 is added to the 96-well plate in the presence or absence of the compounds to be screened. After incubation for 30 min with compounds, STAT3 dimers that bind to the biotinylated hSIE probe are detected with an anti-Stat3 primary antibody (Santa Cruz Biotechnology) followed by a horseradish-peroxidase conjugated secondary antibody. Immune complexes are detected by colorimetric conversion of the substrate, 3,3′,5,5′-tetramethylbenzidine (TMB) peroxidase, using a conventional ELISA plate reader. Epitope tagged versions of STAT3 expressed from baculoviruses have also been generated that are detected using the cognate primary antibodies. We find these anti-tag antibodies to be more sensitive and/or specific.
To facilitate these high throughput, 96-well plate assays, the screening is automated using an available Beckman 2000 Biotek robotics workstation coupled to an ELISA plate reader. The computer-programmed robotics workstation has multi-volume, multi-component mixing capability that greatly accelerates all of the high throughput assays. Inhibition of STAT3 DNA-binding activity in this assay is readily detected as a loss of signal relative to the controls without added compound. As a positive control and to establish the DNA-binding specificity, activated STAT3 is added in the presence of either excess free hSIE oligonucleotide for competition or a non-binding oligonucleotide, FIRE. […] As a negative control, extracts from IFNa-stimulated cells are used as a source of STAT1, which also binds the hSIE. Initial screens are performed at high concentrations of compounds (e.g., 100 uM), and active compounds are further tested in concentration-response studies.
A total of 19 synthetic peptides are tested based on the PY*LKTK sequence (Y*=phosphotyrosine) and their IC50 is determined in terms of disruption of STAT3 DNA-binding activity in vitro (Table 3).

[4] = tested on: MPC11 tumors; test: MPC11 myeloma tumor growth in vivo; set-up: species or system BALB/c mice; settings: MPC11 tumor-bearing mice, rIL-12 alone, 200 ng every second day
Description: Mice and tumor formation in vivo. Six- to eight-week old female BALB/c mice are obtained from the National Cancer Institute (Frederick, Md.). Cohorts of 3-5 mice per group are used for these experiments. Mice are shaved on the right flank and injected subcutaneously (s.c.) with 5×10^5 of either MOPC or MPC11 cells in […] of PBS to induce tumors.
In vivo treatment with AG-490 and IL-12. When tumors reach about 5 […] in diameter, AG-490 treatment of tumors is initiated and continued daily for 7-10 days. For MOPC tumors, injections of 0.85 mg/day of AG-490 are given intratumorally, supplemented with 0.5 mg/day of AG-490 i.p. For MPC11 tumors, the intratumoral treatment is halved while the i.p. dose remains the same. Control mice receive 50% DMSO vehicle alone in the same volume as the AG-490 treatment group. Recombinant IL-12 is given s.c. at either 100 ng or 200 ng every other day. Tumor growth is monitored daily by measuring two perpendicular tumor diameters with a caliper, and tumor volume was calculated according to the formula V=0.52*a*b(a+b)/2 (a=smallest superficial diameter; b=largest superficial diameter).

[5] = tested on: U266 cells; test: Fas-mediated apoptosis (Annexin V, flow cytometry) in U266 cells; format: cell-based, human; settings: 500 ng/ml CH-11 or 100 ng/ml Fas ligand
Description: For surface detection of the Fas receptor, 10^6 cells are suspended in […] PBS with 2.5 mg/ml mouse IgM (Sigma) and […] UB2 antibody (MBL) or IgG1, isotype control serum (Dako). Following 30 min incubation at room temperature, cells are washed with PBS, and incubated in the dark for 30 min with goat anti-mouse Ig-FITC. Fluorescence is measured on a FACScan flow cytometer and analyzed using CellQuest software (Becton Dickinson). For cell cycle analysis, 10^6 cells are fixed in ice-cold ethanol for a minimum of 2 h, washed with PBS, and stained with 5 mg/ml propidium iodide (PI) and […] at 37° C. for 30 min prior to analysis by flow cytometry. […] Apoptosis is measured by staining with Annexin V-FITC (Clontech) and flow cytometry analysis. Fas-specific death is calculated as (% Annexin V positive cells in the CH-11 treated population)−(% Annexin V positive cells in the IgM control population). Programmed cell death in cells transfected with the bicistronic green fluorescent protein vectors (pIRES-EGFP or pIRES-Stat3b) is analyzed after staining with Annexin V-PE (Pharmingen) by two color flow cytometry analysis. Apoptotic morphology of DAPI-stained nuclei and green/red fluorescence is confirmed by fluorescence microscopy.

Molecule: N[C@@H](Cc1ccc(N(CCCl)CCCl)cc1)C(=O)O [melphalan]
apoptosis induced in Bcl-xL overexpressing cells [1]: resistant

Molecule: O=C1c2c(O)ccc(O)c2C(=O)c2c(NCCNCCO)ccc(NCCNCCO)c21 [mitoxantrone]
apoptosis induced in Bcl-xL overexpressing cells [1]: resistant

Molecule: PFLKTK
IC50, disruption of STAT3 DNA-binding activity [3]: ne

Molecule: PY*AKTK (P[pY]AKTK; listed as Homo sapiens) [synthetic peptide, Y* = phosphotyrosine]
IC50, disruption of STAT3 DNA-binding activity [3]: ne

Molecule: PYLKTK [synthetic peptide, unphosphorylated]
IC50, disruption of STAT3 DNA-binding activity [3]: ne

Molecule: SHPWNAQRELSV (listed as Homo sapiens)
Frequency (out of 100 clones) [2]: 9%

B1: rIL-12: recombinant IL-12 (Genetics Institute) (protein, UniProt P29459 23-219; P29460 23-328, looked up)
Interleukin-12 subunit alpha: RNLPVATPDPGMFPCLHHSQNLLRAVSNMLQKARQTLEFYPCTSEEIDHEDITKDKTSTVEACLPLELTKNESCLNSRETSFITNGSCLASRKTSFMMALCLSSIYEDLKMYQVEFKTMNAKLLMDPKRQIFLDQNMLAVIDELMQALNFNSETVPQKSSLEEPDFYKTKIKLCILLHAFRIRAVTIDRVMSYLNAS
Interleukin-12 subunit beta: IWELKKDVYVVELDWYPDAPGEMVVLTCDTPEEDGITWTLDQSSEVLGSGKTLTIQVKEFGDAGQYTCHKGGEVLSHSLLLLHKKEDGIWSTDILKDQKEPKNKTFLRCEAKNYSGRFTCWWLTTISTDLTFSVKSSRGSSDPQGVTCGAATLSAERVRGDNKEYEYSVECQEDSACPAAEESLPIEVMVDAVHKLKYENYTSSFFIRDIIKPDPPKNLQLKPLKNSRQVEVSWEYPDTWSTPHSYFSLTFCVQVQGKSKREKKDRVFTDKTSATVICRKNASISVRAQDRYYSSSWSEWASVPCS
tumor growth [4]: only slightly inhibits

B2: Fas ligand: Fas ligand (Alexis) (protein, UniProt P48023 130-281, looked up)
Tumor necrosis factor ligand …: QIGHPSPPPEKKELRKVAHLTGKSNSRSMPLEWEDTYGIVLLSGVKYKKGGLVINETGLYFVYSKVYFRGQSCNNLPLSHKVYMRNSKYPQDLVMMEGKMMSYCTTGQMWARSSYLGAVFNLTSADHLYVNVSELSLVNFEESQTFFGLYKL
Fas-mediated cell death [5]: completely resistant

Now from value to molecule:

Frequency (out of 100 clones) [2]: 8%
Molecule: FSYPLTRAPLNM (listed as Homo sapiens)

Frequency (out of 100 clones) [2]: 25%
Molecule: HY(S/P)PILVYQPSW

Frequency (out of 100 clones) [2]: 13%
Molecule: QDVHLTQQSRYT (listed as Homo sapiens)

IC50, disruption of STAT3 DNA-binding activity [3]: ne
Molecule: Y*LK ([pY]-Leu-Lys; listed as Homo sapiens) [synthetic peptide, Y* = phosphotyrosine]

Frequency (out of 100 clones) [2]: 8%
Molecule: YPAPQPLVTKTS (listed as Homo sapiens)
